Tests used:
cathepsin B = cathepsin B (Homo sapiens, UniProt P07858); test: Cathepsin B cleavage assay (zRR-AMC substrate); type: biochemical; design: purchased BioVision; details: 0.2 ng cathepsin B, 1 mM zRR-AMC, 2 h at 30° C.
Description: C) Impact of indicated compounds on MALT1, Caspase8 and cathepsin B was tested in in vitro cleavage assays using fluorescent substrates. Results and SD from three independent experiments are shown.
0.2 ng cathepsin B together with probe 5, z-VRPR-FMK (SEQ ID No. 6), mepazine or CA-074 was incubated with 1 mM zRR-AMC substrate for 2 h at 30° C. Assay was performed in 0.1 M sodium acetate pH 5.5, 10 mM DTT and 0.1 mM EDTA. Again, increase of AMC fluorescence is measured in a Synergy 2 Microplate Reader (Biotek).

active MALT1 = molecular target: T1, active MALT1 (Homo sapiens, UniProt Q9UDY8); test: MALT1 ELASA in cryo-preserved patient DLBCL tumor samples; details: 0.25 μM on lysed tumor tissue
T1 construct: endogenous in cells; host or cells: Jurkat T cells, primary human PBMCs and T cells, DLBCL cell lines (HBL1, TMD8, OCI-Ly3, OCI-Ly10, U2932, RIVA, BJAB, Su-DHL-4, Su-DHL-6)
T1 sequence (Q9UDY8 1-824): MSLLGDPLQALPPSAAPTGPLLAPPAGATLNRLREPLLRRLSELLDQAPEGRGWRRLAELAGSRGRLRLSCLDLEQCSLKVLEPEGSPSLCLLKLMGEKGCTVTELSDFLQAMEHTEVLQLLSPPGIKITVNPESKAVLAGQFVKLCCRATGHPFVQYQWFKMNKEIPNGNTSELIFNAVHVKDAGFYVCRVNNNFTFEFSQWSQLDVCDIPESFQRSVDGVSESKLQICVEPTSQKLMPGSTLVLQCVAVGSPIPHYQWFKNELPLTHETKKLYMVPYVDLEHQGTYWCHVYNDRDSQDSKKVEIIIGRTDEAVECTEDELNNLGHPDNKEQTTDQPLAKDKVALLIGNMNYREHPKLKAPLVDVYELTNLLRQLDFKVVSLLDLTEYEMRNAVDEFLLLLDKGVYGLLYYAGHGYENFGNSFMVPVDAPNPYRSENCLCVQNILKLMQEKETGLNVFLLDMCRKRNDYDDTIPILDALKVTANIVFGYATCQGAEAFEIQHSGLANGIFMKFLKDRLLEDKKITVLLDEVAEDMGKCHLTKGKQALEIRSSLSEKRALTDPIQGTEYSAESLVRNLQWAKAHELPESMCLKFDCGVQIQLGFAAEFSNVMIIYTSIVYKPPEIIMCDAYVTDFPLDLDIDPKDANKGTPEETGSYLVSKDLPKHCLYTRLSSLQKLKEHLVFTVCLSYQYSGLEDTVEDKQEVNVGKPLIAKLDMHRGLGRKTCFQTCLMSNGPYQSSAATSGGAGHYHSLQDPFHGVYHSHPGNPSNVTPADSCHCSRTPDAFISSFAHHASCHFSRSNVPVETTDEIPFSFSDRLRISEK
Description: FIG. 10: A) Active MALT1 detection in cryo-preserved patient tumor samples. Frozen tumor tissue was lysed with a douncer and syringe, incubated with z-VRPR-FMK (0.25 μM) (SEQ ID No. 6) or left untreated before MALT1 activity read-out as above. Relative MALT1 activity from each untreated and z-VRPR-FMK (SEQ ID No. 6) treated samples was measured and directly compared (ABC DLBCL n=8; GCB DLBCL n=7). Significance for MALT1 activity in untreated to z-VRPR-FMK (SEQ ID No. 6) treated samples was calculated by a two-tailed t-test (**<0.005). B) Oncogenic CARMA1 is sufficient to trigger MALT1 activation. BJAB transduced with CARMA1 WT or L244P (ABC derived) or L225PI (GCB derived) were lysed and treated with z-VRPR-FMK (SEQ ID No. 6) and analyzed as above. Results and SD from three independent experiments are shown. MALT1 activity is depicted as arbitrary units [AU].
Untreated DLBCL (1×10^7), primary T cells (0.25×10^7) or Jurkat T cells (0.2-1×10^7) (stimulated or not) were lysed in 300 μl co-IP buffer without protease inhibitors, centrifuged, incubated with probe 7 (concentration as depicted) for 1 h at RT, then transferred to streptavidin-coated plates (96 well, clear) and incubated o/n at 4° C. […] was determined after TMB substrate incubation in a photometer (Bio-Tek). […]

For “z-VRPR-FMK (Z N-terminal cap, FMK warhead)”, the “inhibition of cathepsin B activity in vitro” value (cathepsin B) was “abrogated cathepsin B activity even though slightly less efficient”, the “samples with reduction in MALT1 activity, GCB DLBCL” value (active MALT1; 7 GCB DLBCL biopsies) was “one out of seven” and the “samples with reduction in MALT1 activity, ABC DLBCL” value (active MALT1; 8 ABC DLBCL biopsies) was “five out of eight”.
